How the values were obtained:
[1] = system: daratumumab (anti-CD38 therapeutic mAb, IgG kappa); assay: SPR; conditions: SPR: PBS, 2 mM MgCl2 (SB), 6.25-200 nM IgG, 20 ul/min, 1:1 model; ELONA: SuperBlock or ChonBlock, 0.05% Tween 20, 2 mM MgCl2, washes PBS/2 mM MgCl2/0.05% Tween …
[2] = system: M-Ig of patient (monoclonal IgG kappa) (human (patient)); assay: SPR; conditions: 2 mM Mg2+; aptamer immobilized; scrambled channel subtracted; SPR: PBS, 2 mM MgCl2 (SB), 6.25-200 nM IgG, 20 ul/min, 1:1 model; ELONA: SuperBlock or ChonBlock, 0.05% Tween 20, 2 mM MgCl2, washes PBS/2 mM MgCl2/0.05% Tween …

| Sequence | Kd [1] [nM] | Kd [2] [nM] |
| --- | --- | --- |
| GGAGGCTCTCGGGACGACGGCGCGGCGATTTGGGGTATGGGGAGGGGGTGGGTTGGGTCCATCGCTGCTGACCAGTTGAG [aptD] | 2.67 | – |
| GGAGGCTCTCGGGACGACGAGTGTGTCAGGTGGATGGACGGTTGGGTTGGGTAGGCAAGGATCGCTGCTGACCAGTTGAG [aptC] | – | 1.85 |

— article PMC7747622
